Source: US20110039770A1 (PHARMAGAP, published 2011)

Legend:
[1] = target: T1, PKC-βI (purified isoform) (Homo sapiens (Human), UniProt P05771 2-671); experiment: competitive ELISA, coated purified PKC-βI, vs anti-PKC βI (SC-209); PRE 100 µM
T1 construct: also called PKC-beta I; PKC beta 1

[2] = target: T2, PKC-βII (purified isoform) (Homo sapiens (Human), UniProt P05771 2-621); experiment: competitive ELISA, coated purified PKC-βII, vs anti-PKC βII (SC-210); PRE 100 µM
T2 construct: also called PKC-beta II; PKC beta 2
T2 sequence (P05771 other isoform, or with tags, fused parts or gaps limits assumed): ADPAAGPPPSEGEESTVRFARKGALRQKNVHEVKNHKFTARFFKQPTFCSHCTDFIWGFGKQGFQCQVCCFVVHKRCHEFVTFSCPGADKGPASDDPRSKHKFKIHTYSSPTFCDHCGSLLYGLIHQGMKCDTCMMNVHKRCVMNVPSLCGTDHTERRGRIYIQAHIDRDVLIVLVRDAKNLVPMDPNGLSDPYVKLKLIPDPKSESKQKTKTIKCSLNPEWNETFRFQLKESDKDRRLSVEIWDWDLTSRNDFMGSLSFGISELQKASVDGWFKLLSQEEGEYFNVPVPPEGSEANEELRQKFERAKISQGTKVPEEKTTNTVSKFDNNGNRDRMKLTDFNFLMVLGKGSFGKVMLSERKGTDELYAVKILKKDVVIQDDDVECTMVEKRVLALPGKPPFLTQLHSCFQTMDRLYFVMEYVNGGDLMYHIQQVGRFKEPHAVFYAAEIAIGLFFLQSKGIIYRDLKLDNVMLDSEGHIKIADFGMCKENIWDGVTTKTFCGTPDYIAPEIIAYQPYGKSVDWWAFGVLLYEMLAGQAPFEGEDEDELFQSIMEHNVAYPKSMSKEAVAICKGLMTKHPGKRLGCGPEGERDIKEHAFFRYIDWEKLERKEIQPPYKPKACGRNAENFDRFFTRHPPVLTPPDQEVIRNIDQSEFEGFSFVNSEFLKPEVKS
Description: (§1) Greiner 96 well ELISA plates were coated with the appropriate PKC isoform diluted in PBSN (PBS with Calcium/Magnesium+0.05% Sodium azide w/w). 50 μL/well at 250 ng/mL was used. Control wells contained PBSN only. Plates were incubated overnight at 4° C.
(§2) The plates were washed 3 times with 200 μL of dH₂O per well, then 100 μL of blocking solution was added per well and the plate incubated for 1 h at 37° C. The washing steps with dH₂O were repeated and 50 μL of the appropriate PRE solution (PRE stock solution [20 mM in DMSO] diluted in PBSN) was added and the plate incubated for 1 h at room temperature.
(§3) 50 μL of 1:1000 dilution of Alkaline Phosphatase (AP) conjugated antibody (anti-rabbit for all except zeta, which was anti-goat) was then added and the plate incubated for 1 h at room temperature. Washing with dH₂O was then repeated. Finally, 100 μL of pNPP solution in pNPP buffer (2 mM MgCl₂, 100 mM Sodium bicarbonate in water, pH 9.8) was added to all wells and incubated for 8 minutes for α, βI, βII ε, and ζ, or for 15-20 mins for δ (until sufficient coloration is observed). The reaction was stopped by addition of Stop solution (2N NaOH) and the absorbance at 405 nm was read on a Galaxy Plate reader.

PKC-α (purified isoform) = target: T3, PKC-α (purified isoform) (Homo sapiens (Human), UniProt P17252 2-672); experiment: competitive ELISA, coated purified PKC-α, vs anti-PKC α (SC-208); PRE 100 µM
T3 construct: also called purified PKC-alpha; commercially purified PKC-alpha
In short: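 Wells were coated overnight at 4 °C with purified PKC isoform at 250 ng/mL in PBSN, blocked 1 h at 37 °C, and then given PRE diluted in PBSN from a 20 mM DMSO stock for 1 h at room temperature. The AP-conjugated anti-rabbit antibody was developed with pNPP (pH 9.8) and read at 405 nm.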

[3] = target: T4, PKC-ε (endogenous, IMR-32 lysate) (human, UniProt Q02156 1-737); experiment: WB competition Protocol B, IMR-32 extract, vs anti-PKC-ε Ab; PKC-ε Band 2; 100 µg peptide
T4 construct: Band 1 and Band 2 (alternate splicing variants, not identified further) are kept under one molecule; the band is named in the assay field of each row; also called PKC-epsilon; PKC-ε Band 1
T4 sequence (looked up): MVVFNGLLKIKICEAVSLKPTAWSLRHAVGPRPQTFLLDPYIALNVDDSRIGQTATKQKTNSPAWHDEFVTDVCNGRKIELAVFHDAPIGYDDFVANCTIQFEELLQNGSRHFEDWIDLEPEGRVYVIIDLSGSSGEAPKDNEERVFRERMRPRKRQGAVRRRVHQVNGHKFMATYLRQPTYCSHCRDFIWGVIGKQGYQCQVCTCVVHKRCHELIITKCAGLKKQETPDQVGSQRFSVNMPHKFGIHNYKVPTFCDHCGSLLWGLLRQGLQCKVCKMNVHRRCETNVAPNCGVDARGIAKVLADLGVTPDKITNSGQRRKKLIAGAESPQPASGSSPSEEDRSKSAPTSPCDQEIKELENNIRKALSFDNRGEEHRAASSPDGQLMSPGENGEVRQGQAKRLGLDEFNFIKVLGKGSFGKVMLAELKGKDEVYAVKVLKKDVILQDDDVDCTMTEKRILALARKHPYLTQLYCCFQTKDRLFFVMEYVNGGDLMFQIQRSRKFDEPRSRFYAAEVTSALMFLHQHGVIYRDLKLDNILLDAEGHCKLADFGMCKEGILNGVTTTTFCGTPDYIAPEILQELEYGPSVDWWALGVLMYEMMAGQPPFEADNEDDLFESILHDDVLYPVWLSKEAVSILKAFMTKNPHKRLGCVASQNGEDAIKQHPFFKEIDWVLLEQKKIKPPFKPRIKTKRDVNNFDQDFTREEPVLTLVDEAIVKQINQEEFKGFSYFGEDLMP
Description: (§4) The ability of the peptides PRE 2 and PRE 3 (see Table 4) to interfere with the binding of a PKC-α-specific polyclonal antibody (Santa Cruz Biotechnology, Inc.) to PKC-α was determined using a modified version of the protocol outlined above in which the test peptide was added directly to the cell extract prior to electrophoresis at a concentration of either 5× or 15× the concentration of the protein applied to each well of the gel for the Western blots (20 μg).
(§5) Peptides PRE 2, PRE 3 and PRE 4 (see Table 4) were tested for their ability to interfere with the binding of isoform-specific polyclonal antibodies (Santa Cruz Biotechnology, Inc.) to […] using the general protocol described in Example 3. Two bands, representing alternate splicing variants of PKC-ε, were identified on the Western blot using this anti-PKC-ε antibody.

[4] = target: T2, PKC-βII (purified isoform); experiment: competitive ELISA, coated purified PKC-βII, vs anti-PKC βII (SC-210); PRE 200 µM
Description: as §1, §2, §3

[5] = target: T4, PKC-ε (endogenous, IMR-32 lysate); experiment: WB competition Protocol B, IMR-32 extract, vs anti-PKC-ε Ab; PKC-ε Band 1; 20 µg peptide
Description: as §4, §5

[6] = target: T4, PKC-ε (endogenous, IMR-32 lysate); experiment: WB competition Protocol B, IMR-32 extract, vs anti-PKC-ε Ab; PKC-ε Band 1; 100 µg peptide
Description: as §4, §5

T1 sequence (P05771 2-671 limits assumed): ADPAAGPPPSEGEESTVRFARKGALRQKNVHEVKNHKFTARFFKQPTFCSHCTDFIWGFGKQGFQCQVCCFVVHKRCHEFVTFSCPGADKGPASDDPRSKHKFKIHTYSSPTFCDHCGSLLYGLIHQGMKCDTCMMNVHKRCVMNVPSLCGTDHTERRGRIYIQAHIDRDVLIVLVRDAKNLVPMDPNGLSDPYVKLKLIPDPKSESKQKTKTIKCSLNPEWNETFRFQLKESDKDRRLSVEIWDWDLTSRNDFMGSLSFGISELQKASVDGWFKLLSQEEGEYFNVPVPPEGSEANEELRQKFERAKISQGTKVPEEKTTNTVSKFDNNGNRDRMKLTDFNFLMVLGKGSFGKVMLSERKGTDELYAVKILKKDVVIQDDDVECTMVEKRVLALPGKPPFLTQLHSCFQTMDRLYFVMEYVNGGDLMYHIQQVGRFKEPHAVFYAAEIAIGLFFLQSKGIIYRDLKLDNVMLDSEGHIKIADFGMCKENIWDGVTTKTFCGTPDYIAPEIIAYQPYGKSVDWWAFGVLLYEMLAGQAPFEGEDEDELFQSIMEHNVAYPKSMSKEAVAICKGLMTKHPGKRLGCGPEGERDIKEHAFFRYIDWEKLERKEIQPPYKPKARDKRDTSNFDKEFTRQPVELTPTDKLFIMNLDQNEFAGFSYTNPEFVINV

B1: PRE 4 (peptide)
peptide: Ac-KDAQNLIGISI-NH2
notes: also called peptide PRE 4
- relative binding capacity (100-%n, DMSO subtracted) [1]: 15.7%
- relative binding capacity (100-%n, DMSO subtracted) [2]: 13.5%
- relative binding capacity (100-%n, DMSO subtracted) (PKC-α (purified isoform)): 21.9%
- Band Intensity [3]: 0
- Inhibition (%) [3]: 100%
- Relative Intensity (%) [3]: 0%
- relative binding capacity (100-%n, DMSO subtracted) [4]: 1.18%
- Band Intensity [5]: 184
- Inhibition (%) [5]: 42.9%
- Relative Intensity (%) [5]: 57.1%
- Band Intensity [6]: 0
- Inhibition (%) [6]: 100%
- Relative Intensity (%) [6]: 0%
